Experimental data taken from US20090202531A1 (Novartis, published 2009).

What was measured:
human FcγRIIIa-158V = biological target: T1, human FcγRIIIa-158V (human, UniProt P08637 17-208); assay: Biacore (SPR)
T1 construct: also called FcγRIIIa aa518V allele (sic); FcγRIIIa aa158V

human FcγRIIIa-158F [1] = biological target: T2, human FcγRIIIa-158F (human, UniProt P08637 17-208, limits assumed); assay: Biacore (SPR)
T2 construct: also called FcγRIIIa aa158F allele

human FcγRIIIa-158F [2] = biological target: T2, human FcγRIIIa-158F; assay: Biacore (SPR); reference rituximab on the same allele

T2 sequence (P08637 17-208 limits assumed): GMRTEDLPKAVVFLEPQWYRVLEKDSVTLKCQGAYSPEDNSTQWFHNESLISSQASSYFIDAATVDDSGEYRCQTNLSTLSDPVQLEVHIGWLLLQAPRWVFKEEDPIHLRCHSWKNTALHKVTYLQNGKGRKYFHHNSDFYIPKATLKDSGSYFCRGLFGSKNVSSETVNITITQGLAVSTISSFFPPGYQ
T1 sequence (P08637 17-208 F176V): as the sequence (P08637 17-208 limits assumed) above, with F160V counted along it

Kd (human FcγRIIIa-158V): 492 nM
Kd (human FcγRIIIa-158F [1]): 2800 nM
fold higher affinity compared with rituximab (human FcγRIIIa-158F [2]): 4.6 fold
B1: monoclonal antibody CHIR-12.12 (antibody)
heavy: not shown
light: DIVMTQSPLSLTVTPGEPASISCRSSQSLLYSNGYNYLDWYLQKPGQSPQVLISLGSNRASGVPDRFSGSGSGTDFTLKISRVEAEDVGVYYCMQARQTPFTFGPGTKVDIRRTVAAPSVFIFPPSDEQLKSGTASVVCLLNNFYPREAKVQWKVDNALQSGNSQESVTEQDSKDSTYSLSSTLTLSKADYEKHKVYACEVTHQGLSSPVTKSFNRGEC
notes: Fully human anti-CD40 IgG1 kappa; also called CH12.12
